Source: paper doi:10.1101/2024.09.12.612777 (bioRxiv, 2024)

Experiments:
Experiment in all cases: pull-down
[1] = molecular target: T1, VAL1 (recombinant, pull-down) (Arabidopsis thaliana, UniProt Q8W4L5 1-790)
T1 sequence (looked up): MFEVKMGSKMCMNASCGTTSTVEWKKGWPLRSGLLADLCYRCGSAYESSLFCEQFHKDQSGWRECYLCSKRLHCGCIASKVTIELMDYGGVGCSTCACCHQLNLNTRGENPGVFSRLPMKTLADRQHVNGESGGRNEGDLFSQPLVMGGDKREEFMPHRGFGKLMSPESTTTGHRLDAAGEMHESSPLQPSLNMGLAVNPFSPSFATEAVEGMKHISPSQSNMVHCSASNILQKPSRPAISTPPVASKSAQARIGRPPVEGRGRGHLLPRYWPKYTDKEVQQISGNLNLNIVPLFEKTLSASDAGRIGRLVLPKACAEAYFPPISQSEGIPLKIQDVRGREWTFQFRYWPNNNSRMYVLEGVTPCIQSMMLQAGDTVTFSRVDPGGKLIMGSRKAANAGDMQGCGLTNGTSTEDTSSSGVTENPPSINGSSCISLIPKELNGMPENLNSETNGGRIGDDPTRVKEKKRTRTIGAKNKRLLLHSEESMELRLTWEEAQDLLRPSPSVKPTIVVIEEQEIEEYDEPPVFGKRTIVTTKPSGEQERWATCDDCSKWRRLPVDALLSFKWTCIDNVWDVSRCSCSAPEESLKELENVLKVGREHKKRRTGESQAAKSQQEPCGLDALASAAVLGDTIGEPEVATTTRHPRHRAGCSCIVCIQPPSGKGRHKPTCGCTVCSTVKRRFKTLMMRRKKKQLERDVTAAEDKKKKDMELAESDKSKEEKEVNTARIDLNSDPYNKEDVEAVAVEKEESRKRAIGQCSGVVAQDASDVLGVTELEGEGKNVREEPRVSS

[2] = molecular target: T2, MINU2-3 (C-terminal domain of the MAS catalytic enzyme MINU2, 677-1,064 aa) (Arabidopsis thaliana, UniProt F4K128 677-1064)
T2 sequence (looked up): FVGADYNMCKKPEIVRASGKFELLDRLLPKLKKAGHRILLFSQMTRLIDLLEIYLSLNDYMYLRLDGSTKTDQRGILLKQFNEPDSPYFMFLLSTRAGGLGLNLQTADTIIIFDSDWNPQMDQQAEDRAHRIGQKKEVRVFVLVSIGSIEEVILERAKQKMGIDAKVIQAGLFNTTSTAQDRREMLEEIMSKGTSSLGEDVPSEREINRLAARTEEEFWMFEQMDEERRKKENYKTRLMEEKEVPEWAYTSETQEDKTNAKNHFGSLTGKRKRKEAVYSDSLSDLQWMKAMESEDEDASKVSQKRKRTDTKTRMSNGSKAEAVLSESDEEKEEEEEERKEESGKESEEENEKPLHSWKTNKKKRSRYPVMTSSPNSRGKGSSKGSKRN

[3] = molecular target: ZF2 (recombinant, pull-down) (Arabidopsis thaliana, UniProt Q9SSW2 1-273)
[4] = molecular target: T3, HDA19 (HDAC catalytic subunit) (Arabidopsis thaliana, UniProt O22446 1-501)
T3 sequence (looked up): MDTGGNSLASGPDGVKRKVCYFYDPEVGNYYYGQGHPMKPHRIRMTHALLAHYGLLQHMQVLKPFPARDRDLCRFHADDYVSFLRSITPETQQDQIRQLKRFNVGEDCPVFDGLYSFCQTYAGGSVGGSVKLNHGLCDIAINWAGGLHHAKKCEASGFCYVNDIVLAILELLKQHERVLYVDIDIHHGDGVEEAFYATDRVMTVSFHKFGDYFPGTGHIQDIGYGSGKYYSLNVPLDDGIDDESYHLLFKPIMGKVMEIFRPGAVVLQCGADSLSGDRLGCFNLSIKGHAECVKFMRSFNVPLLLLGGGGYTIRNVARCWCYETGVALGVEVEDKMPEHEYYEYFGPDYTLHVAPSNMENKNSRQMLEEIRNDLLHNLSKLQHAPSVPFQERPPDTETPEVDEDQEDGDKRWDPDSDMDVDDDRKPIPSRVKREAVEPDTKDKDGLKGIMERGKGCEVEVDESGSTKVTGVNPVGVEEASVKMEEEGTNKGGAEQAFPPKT

[5] = molecular target: T4, UBP5 (H2A deubiquitinase, subunit of the PEAT complex) (Arabidopsis thaliana, UniProt O22207 1-924)
T4 sequence (looked up): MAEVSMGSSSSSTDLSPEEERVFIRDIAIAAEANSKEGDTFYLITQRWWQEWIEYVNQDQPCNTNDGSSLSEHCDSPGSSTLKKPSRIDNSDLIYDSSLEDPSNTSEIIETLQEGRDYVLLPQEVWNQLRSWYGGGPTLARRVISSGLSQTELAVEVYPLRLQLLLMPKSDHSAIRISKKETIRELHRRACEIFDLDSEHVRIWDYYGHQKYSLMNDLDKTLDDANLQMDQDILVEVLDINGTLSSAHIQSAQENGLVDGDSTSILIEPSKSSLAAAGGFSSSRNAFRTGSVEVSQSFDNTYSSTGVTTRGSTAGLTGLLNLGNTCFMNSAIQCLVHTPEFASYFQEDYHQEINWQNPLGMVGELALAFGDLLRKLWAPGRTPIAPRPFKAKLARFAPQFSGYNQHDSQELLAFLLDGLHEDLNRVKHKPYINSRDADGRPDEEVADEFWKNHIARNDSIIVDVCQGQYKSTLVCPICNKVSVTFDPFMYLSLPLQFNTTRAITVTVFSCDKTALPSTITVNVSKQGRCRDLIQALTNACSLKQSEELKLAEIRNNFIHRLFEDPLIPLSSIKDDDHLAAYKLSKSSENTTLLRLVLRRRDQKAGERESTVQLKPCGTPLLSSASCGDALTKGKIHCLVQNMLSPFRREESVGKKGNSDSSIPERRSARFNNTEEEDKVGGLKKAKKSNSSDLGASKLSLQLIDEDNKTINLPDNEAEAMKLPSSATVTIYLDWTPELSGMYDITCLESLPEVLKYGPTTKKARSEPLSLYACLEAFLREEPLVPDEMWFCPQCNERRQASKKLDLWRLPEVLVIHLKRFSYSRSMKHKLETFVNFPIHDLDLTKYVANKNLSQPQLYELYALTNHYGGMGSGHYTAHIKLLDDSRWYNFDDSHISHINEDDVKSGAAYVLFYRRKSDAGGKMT

[6] = molecular target: T5, AL4 (recombinant, pull-down) (Arabidopsis thaliana, UniProt O81488 1-255)
T5 sequence (looked up): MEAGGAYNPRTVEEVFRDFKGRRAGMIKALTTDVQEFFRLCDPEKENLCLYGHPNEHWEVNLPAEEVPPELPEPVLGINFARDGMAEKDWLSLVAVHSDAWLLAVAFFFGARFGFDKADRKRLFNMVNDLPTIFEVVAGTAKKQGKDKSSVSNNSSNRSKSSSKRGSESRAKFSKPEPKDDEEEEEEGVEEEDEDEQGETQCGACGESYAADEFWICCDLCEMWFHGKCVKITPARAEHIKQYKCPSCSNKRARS

[7] = molecular target: T6, RING1A (recombinant, pull-down) (Arabidopsis thaliana, UniProt Q9FKW0 1-522)
T6 sequence (looked up): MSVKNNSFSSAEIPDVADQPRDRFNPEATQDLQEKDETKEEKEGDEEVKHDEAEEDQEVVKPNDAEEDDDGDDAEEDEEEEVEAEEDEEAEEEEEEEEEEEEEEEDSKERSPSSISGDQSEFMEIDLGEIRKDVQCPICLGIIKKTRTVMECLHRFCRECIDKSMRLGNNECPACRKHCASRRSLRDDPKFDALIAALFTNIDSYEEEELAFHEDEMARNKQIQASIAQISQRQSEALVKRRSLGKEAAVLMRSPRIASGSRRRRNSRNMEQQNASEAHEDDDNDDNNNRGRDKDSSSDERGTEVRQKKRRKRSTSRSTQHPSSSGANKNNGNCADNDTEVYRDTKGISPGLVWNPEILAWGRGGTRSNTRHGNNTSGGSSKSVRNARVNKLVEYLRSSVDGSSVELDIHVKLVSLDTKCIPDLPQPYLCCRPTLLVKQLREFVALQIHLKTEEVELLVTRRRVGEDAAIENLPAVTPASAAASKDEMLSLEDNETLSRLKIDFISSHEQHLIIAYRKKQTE

[8] = molecular target: T7, GATA1 (recombinant, pull-down) (Arabidopsis thaliana, UniProt Q8LAU9 1-274)
T7 sequence (looked up): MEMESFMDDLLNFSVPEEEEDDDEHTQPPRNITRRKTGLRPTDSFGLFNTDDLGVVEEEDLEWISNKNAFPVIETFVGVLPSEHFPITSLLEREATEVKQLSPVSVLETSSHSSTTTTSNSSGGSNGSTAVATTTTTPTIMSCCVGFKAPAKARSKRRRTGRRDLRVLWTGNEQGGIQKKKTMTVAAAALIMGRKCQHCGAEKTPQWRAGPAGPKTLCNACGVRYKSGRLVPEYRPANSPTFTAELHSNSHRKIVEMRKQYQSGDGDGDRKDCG

[9] = molecular target: T8, BRM-3 (C-terminal domain of the BAS-type SWI/SNF chromatin remodeler BRM, 1,596-2,193 aa) (Arabidopsis thaliana, UniProt Q6EVK6 1596-2193)
T8 sequence (looked up): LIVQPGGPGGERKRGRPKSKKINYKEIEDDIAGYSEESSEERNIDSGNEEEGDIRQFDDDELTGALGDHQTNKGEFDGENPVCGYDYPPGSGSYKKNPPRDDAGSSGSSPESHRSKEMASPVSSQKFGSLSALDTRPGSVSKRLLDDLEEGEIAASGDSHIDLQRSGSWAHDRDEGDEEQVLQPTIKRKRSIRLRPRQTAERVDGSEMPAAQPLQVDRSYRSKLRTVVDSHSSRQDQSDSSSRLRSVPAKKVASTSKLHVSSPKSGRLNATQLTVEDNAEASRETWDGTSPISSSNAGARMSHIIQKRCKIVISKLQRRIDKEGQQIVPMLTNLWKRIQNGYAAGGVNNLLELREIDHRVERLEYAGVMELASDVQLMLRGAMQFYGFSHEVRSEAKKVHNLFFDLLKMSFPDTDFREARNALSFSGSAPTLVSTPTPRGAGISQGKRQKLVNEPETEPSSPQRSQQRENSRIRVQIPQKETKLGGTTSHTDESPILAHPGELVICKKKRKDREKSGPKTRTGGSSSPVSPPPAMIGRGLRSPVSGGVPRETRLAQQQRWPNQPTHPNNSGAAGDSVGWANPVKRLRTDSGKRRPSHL

Measured: binding result

Chain of ZF2 (recombinant, pull-down) (Q9SSW2 whole entry): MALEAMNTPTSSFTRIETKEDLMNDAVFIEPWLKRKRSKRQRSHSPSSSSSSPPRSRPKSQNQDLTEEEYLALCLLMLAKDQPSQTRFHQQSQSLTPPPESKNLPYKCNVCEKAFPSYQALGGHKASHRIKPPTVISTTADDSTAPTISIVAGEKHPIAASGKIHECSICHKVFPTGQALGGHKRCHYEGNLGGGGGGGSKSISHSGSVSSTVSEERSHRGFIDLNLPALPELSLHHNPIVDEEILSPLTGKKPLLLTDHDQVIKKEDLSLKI

B1: AL2 (recombinant, pull-down) (natural protein, Arabidopsis thaliana, UniProt Q9SRM4 1-246, looked up)
chain: MAAAAVSSNPRTVEEIFKDYSARRAALLRALTKDVDDFYSQCDPEKENLCLYGHPNESWEVNLPAEEVPPELPEPALGINFARDGMQRKDWLSLVAVHSDCWLLSVSFYFGARLNRNERKRLFSLINDLPTLFDVVTGRKAMKDNKPSSDSGSKSRNGTKRSIDGQTKSSTPKLMEESYEEEEEEDEHGDTLCGSCGGHYTNEEFWICCDVCERWYHGKCVKITPAKAESIKQYKCPPCCAKKGRQ
binds: all assays above
